Measurements published in patent publication EP4711453A1, “PHENYLALANINE LYASE MUTANT, AND CONJUGATE THEREOF OR PHARMACEUTICALLY ACCEPTABLE SALT THEREOF” (Peg-Bio Biopharm Co., Ltd. (Chongqing), priority 2023, dated 2024).
Where “and” joins values, the source holds several entries; their conditions need not be identical. Equal entries are not always repeated. Where two headings read alike, the source gives them in different places.

What was measured:
[1] = set-up: species or system SD rats; conditions: rat, in vivo, sc, 2 mg/kg
Procedure: To evaluate PEGylated conjugates of phenylalanine lyase or its mutants with different average degrees of modification, the inventors divided SD rats into four groups (n=6 per group). The animals were subcutaneously injected with PL54-1 and PL54-5 (average degrees of modification: 10.54 and 13.60, respectively) and PL5-1 and PL5-5 (average degrees of modification: 8.2 and 10.53, respectively) from Table 3 of Example 2 at a dose of 2 mg/kg once a week for four doses. Blood samples were collected on D1 (Day 1), D3 (Day 3), and D7 (Day 7) after the first dose, as well as on D3 and D7 following each subsequent dose. The concentrations of PL54-1, PL54-5, PL5-1, and PL5-5 in rat serum were determined by sandwich ELISA to assess plasma drug concentration maintenance after multiple administrations. Anti-PEG-IgM/IgG antibody titers in rat serum from each group were measured using indirect ELISA (coating with PEG-BSA, adding positive rat anti-PEG Abs/test serum samples, followed by HRP-conjugated anti-rat IgM/IgG detection), while bridging ELISA (coating with PAL protein, adding positive sheep anti-PAL Abs/acidified serum samples, followed by biotin-labeled PAL detection) was also performed. The plasma drug concentration results are shown in FIG. 4, and the antibody detection results after administration were shown in FIG. 4 and FIG. 5.

[2] = Serum drug concentration after a single administration in phenylketonuria model mice (sandwich ELISA); type: in vivo; set-up: Blood drug concentration in serum: unit not given here; conditions: Pah^enu mice
From the text: (§1) Phenylalanine hydroxylase (PAH) was central to phenylalanine metabolism in animals, catalyzing the conversion of phenylalanine to tyrosine. Deficiency of this gene underlies phenylketonuria. […] Therefore, the homozygous mouse carrying the missense mutation F263S can be used as an animal model for phenylketonuria (referred to as the Pah^enu mouse or model mouse) in this drug study.
To evaluate the polyethylene glycol conjugate PL54 of the site-saturation modified phenylalanine lyase mutant, six Pah^enu mice were assigned to three groups of two mice each. PL54-5 (average degree of modification 13.60, specific enzyme activity 1.27 U/mg) from Table 3 of Example 2 was administered to the phenylketonuria animal model mice at low, medium, and high doses of 0.5 mg/kg, 1.5 mg/kg, and 4.5 mg/kg, respectively, via subcutaneous injection. Blood samples were collected from mice in each group at 1 h before administration and at 1, 3, 5, 7, 10, and 14 days after administration, respectively, and the content of PL54-5 in serum was detected by sandwich ELISA (for details, see Example 5).

serum phenylalanine = assay: Serum phenylalanine concentration after multiple administrations in phenylketonuria model mice (LC-MS/MS); type: in vivo; conditions: Pah^enu mice
From the text: as §1
(§2) To evaluate the polyethylene glycol conjugate PL54 of site-saturation modified phenylalanine lyase mutant, […] Pah^enu mice were allocated into five groups (four experimental groups and one control group), with six mice in each group. PL54-5 (average degree of modification 13.60, specific enzyme activity 1.27 U/mg) from Table 3 of Example 2 was administered to phenylketonuria animal model mice at low, medium, and high doses of 0.5 mg/kg, 1.5 mg/kg, and 4.5 mg/kg, respectively, via subcutaneous injection. The high-dose group of 4.5 mg/kg also included a group receiving intramuscular administration, once per week. The control group was administered phosphate buffered saline as a placebo subcutaneously once weekly. Blood samples were collected from mice in each group at 1 h before administration and at 2, 5, and 7 days after administration for each group. The content of PL54-5 in serum, changes in phenylalanine concentration (Reference: Judy Peat et al., Determination of Phenylalanine and Tyrosine by High Performance Liquid Chromatography-Tandem Mass Spectrometry), and Anti-PEG-IgM/IgG antibody titers (see Example 5 for details) were detected by sandwich ELISA (see Example 5 for details), and their pharmacokinetics were evaluated, see FIG. 6 to FIG.9 for details.

[3] = set-up: species or system Pah^enu mice; conditions: mouse, in vivo
Procedure: as §2

anti-PEG antibodies = tested on: anti-PEG antibodies; set-up: species or system Pah^enu mice; conditions: mouse, in vivo
Procedure: as §2

[4] = tested on: anti-PAL4 protein antibodies; assay: Anti-PAL4 protein antibody after multiple administrations in phenylketonuria model mice; type: in vivo; conditions: Pah^enu mice
[5] = Subcutaneous/intravenous pharmacokinetics in dogs (double-antibody sandwich ELISA); type: in vivo; conditions: beagle dogs; for dogs with accelerated blood clearance: 2 mg/kg once weekly
Procedure: […] Six beagle dogs were equally divided into two groups: the subcutaneous administration group and the intravenous administration group. […] Blood samples were collected from both groups on days 1, 3, 5, and 7 after the first administration, and on Day 1 and Day 3 after each subsequent administration. Serum plasma drug concentrations were measured using the double-antibody sandwich ELISA method (see Example 5 for details).

B1: PL54-5: polyethylene glycol conjugate of PAL4 (SEQ ID NO: 6) with PEG-SPA-5K, molar ratio 1:16, average degree of modification 13.60 (conjugate)
chain: MKTLSQAQSKTSSQQFSFTGNSSANVIIGNQKLTINDVARVARNGTLVSLTNNTDILQGIQASCDYINNAVKSGEPIYGVTSGFGGMANVAISREQASELQTNLVWFLKTGAGNKLPLADVRAAMLLRANSHMRGASGIRLELIKRMEIFLNAGVTPYVYEFGSIGASGDLVPLSYITGSLIGLDPSFKVDFNGKEMDAPTALRQLNLSPLTLLPKEGLAMMNGTSVMTGIAANCVYDTKILTAIAMGVHALDIQALNGTNQSFHPFIHNSKPHPGQLWAADQMISLLANSQLVRDELDGKHDYRDHELIQDRYSLRCLPQYLGPIVDGISQIAKQIEIEINSVTDNPLIDVDNQASYHGGNFLGQYVGMGMDHLRYYIGLLAKHLDVQIALLASPEFSNGLPPSLLGNRERKVNMGLKGLQICGNSIMPLLTFYGNSIADRFPTHAEQFNQNINSQGYTSATLARKSVDIFQNYVAIALMFGVQAVDLRTYKKTGHYDARASLSPATERLYSAVRHVVGQKPTSDRPYIWNDNEQGLDEHIAKISADIAAGGVIVQAVQDILPSLH
modifications: PEG-SPA-5K conjugate, ~13.6 PEG per molecule
plasma drug maintenance [1]: superior to that of PL5-1 and PL5-5
Blood drug concentration in serum ([2]; single 0.5 mg/kg s.c., 1-D1, dilution 1:500): 0.3
Blood drug concentration in serum ([2]; single 0.5 mg/kg s.c., 1-D3, dilution 1:500): 2.4
Blood drug concentration in serum ([2]; single 0.5 mg/kg s.c., 1-D5, dilution 1:500): 0.9
Blood drug concentration in serum ([2]; single 0.5 mg/kg s.c., 1-D7, dilution 1:500): 0.2
Blood drug concentration in serum ([2]; single 0.5 mg/kg s.c., 1-D10, dilution 1:500): 0.1
Blood drug concentration in serum ([2]; single 0.5 mg/kg s.c., D0 (1 h before administration), dilution 1:50): 0
Blood drug concentration in serum ([2]; single 1.5mg/kg s.c., 1-D1, dilution 1:500, 1.5 mg/kg): 0.5 and 0.6
Blood drug concentration in serum ([2]; single 1.5mg/kg s.c., 1-D3, dilution 1:500, 1.5 mg/kg): 2.7 and 2.2
Blood drug concentration in serum ([2]; single 1.5mg/kg s.c., 1-D5, dilution 1:500): 0.9
Blood drug concentration in serum ([2]; single 1.5mg/kg s.c., 1-D7, dilution 1:500, 1.5 mg/kg): 0.4 and 0.3
Blood drug concentration in serum ([2]; single 1.5mg/kg s.c., D0 (1 h before administration), dilution 1:50): 0
Blood drug concentration in serum ([2]; single 4.5 mg/kg s.c., 1-D1, dilution 1:500, 4.5 mg/kg): 1.6 and 0.8
Blood drug concentration in serum ([2]; single 4.5 mg/kg s.c., 1-D3, dilution 1:500, 4.5 mg/kg): 2.6 and 2.9
Blood drug concentration in serum ([2]; single 4.5 mg/kg s.c., 1-D5, dilution 1:500, 4.5 mg/kg): 1.9 and 1.2
Blood drug concentration in serum ([2]; single 4.5 mg/kg s.c., 1-D7, dilution 1:500, 4.5 mg/kg): 0.8 and 0.4
Blood drug concentration in serum ([2]; single 4.5 mg/kg s.c., 1-D10, dilution 1:500): 0
Blood drug concentration in serum ([2]; single 4.5 mg/kg s.c., 1-D14, dilution 1:500): 0.2
Blood drug concentration in serum ([2]; single 4.5 mg/kg s.c., D0 (1 h before administration), dilution 1:50): 0
plasma drug concentration in relation to the administration dose ([2]; single s.c. injection, 0.5, 1.5 and 4.5 mg/kg): directly proportional to the administration dose
efficacy after intramuscular administration (serum phenylalanine; 4.5 mg/kg intramuscular once per week): consistent with that after subcutaneous administration
serum phenylalanine (serum phenylalanine; high dose 4.5 mg/kg s.c., within 2 days after the first administration): below the method detection limit
reduction of serum phenylalanine levels (serum phenylalanine; high-dose group 4.5 mg/kg s.c., after five repeated administrations, within 2 days): more than 90%
decrease of serum phenylalanine levels (serum phenylalanine; medium-dose group 1.5 mg/kg s.c., after five repeated administrations): approximately 75%
plasma drug concentration in relation to the administration dose [3]: directly proportional to the administration dose
plasma drug concentration, intramuscular compared with subcutaneous ([3]; 4.5 mg/kg): higher than that in the subcutaneous administration group
S/N values of IgG and IgM antibodies (anti-PEG) (anti-PEG antibodies): decreased with increasing number of administrations
anti-PEG antibodies (anti-PEG antibodies): positive
anti-PAL4 protein antibodies ([4]; intramuscular administration group): weak positivity
anti-PAL4 protein antibodies ([4]; subcutaneous administration group): negative
bioavailability of subcutaneous administration relative to intravenous administration ([5]; 2 mg/kg): 64.4%
dogs with accelerated blood clearance ([5]; after multiple intravenous administrations): 2/3
dogs with accelerated blood clearance ([5]; after multiple subcutaneous administrations): 1/3
peak time of blood drug concentration ([5]; 2 mg/kg, single intravenous administration): 1 days
peak time of blood drug concentration ([5]; 2 mg/kg, single subcutaneous administration): 3 days
